Source: patent US20250059270A1

Assays:
[1] = biological target: human IL-6R on HEK-Blue IL6 reporter cells (human) (UniProt P08887); assay: cell-based or functional assay
hyper IL-6 = assay: cell-based or functional assay

Chain of human IL-6R on HEK-Blue IL6 reporter cells (human) (P08887 20-468): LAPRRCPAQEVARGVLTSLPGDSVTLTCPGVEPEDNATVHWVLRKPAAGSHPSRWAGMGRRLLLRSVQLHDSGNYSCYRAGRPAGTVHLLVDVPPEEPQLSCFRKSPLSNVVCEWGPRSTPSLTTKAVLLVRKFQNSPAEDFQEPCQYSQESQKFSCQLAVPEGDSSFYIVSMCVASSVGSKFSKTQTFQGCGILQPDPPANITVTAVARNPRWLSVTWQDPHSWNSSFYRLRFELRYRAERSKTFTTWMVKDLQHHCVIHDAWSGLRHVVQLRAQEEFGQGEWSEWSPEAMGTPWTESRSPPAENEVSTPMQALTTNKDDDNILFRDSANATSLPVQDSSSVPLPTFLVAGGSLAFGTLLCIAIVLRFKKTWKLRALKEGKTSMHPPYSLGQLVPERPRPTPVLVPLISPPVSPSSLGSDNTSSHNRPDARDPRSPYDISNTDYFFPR

IC50, HEK-Blue IL6 reporter cells, 20 pM IL-6 [1]: 1490 pM | IC50, cis-signaling, HEK-Blue IL6 cells, 20 pM free IL-6 [1]: 12.9 nM | IC90, HEK-Blue IL6 reporter cells, 20 pM IL-6 [1]: 23700 pM | trans-signaling, HEK-Blue IL6 cells, 200 pM hyper IL-6 (hyper IL-6): > 1 µM
B1: Tocilizumab (antibody, part only; not given: constant regions, V domains shown, not shown: another chain or arm of the molecule)
VH: QVQLQESGPGLVRPSQTLSLTCTVSGYSITSDHAWSWVRQPPGRGLEWIGYISYSGITTYNPSLKSRVTMLRDTSKNQFSLRLSSVTAADTAVYYCARSLARTTAMDYWGQGSLVTVSS
VL: DIQMTQSPSSLSASVGDRVTITCRASQDISSYLNWYQQKPGKAPKLLIYYTSRLHSGVPSRFSGSGSGTDFTFTISSLQPEDIATYYCQQGNTLPYTFGQGTKVEIK
